Experimental data: patent US20050064518A1 (PURDUE PHARMA L P, published 2005)

T1: O772P 3-repeat TM on transfected NIH/3T3 cells (human)
T1 construct: also called NIH/3T3 O772P 3-repeat
T1 chain: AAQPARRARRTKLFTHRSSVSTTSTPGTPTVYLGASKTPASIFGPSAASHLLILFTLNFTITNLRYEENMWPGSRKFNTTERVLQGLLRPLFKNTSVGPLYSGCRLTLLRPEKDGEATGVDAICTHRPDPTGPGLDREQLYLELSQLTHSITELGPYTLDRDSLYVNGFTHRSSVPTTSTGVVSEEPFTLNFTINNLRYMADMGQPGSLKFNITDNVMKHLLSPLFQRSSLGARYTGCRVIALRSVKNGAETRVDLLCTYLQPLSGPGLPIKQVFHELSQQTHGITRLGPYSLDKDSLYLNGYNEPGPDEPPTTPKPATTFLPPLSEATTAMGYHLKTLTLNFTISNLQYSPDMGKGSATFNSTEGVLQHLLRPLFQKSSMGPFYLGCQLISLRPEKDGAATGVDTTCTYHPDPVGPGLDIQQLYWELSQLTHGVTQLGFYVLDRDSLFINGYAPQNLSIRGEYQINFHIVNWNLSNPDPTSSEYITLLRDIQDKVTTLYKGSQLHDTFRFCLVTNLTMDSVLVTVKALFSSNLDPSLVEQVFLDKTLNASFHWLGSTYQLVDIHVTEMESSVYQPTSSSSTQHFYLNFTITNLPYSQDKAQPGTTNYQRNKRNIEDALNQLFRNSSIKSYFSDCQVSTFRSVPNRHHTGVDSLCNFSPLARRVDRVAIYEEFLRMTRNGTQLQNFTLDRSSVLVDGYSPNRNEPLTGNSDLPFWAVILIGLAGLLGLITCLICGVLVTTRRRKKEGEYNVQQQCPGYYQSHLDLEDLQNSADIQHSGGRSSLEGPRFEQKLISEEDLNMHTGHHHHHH

B1: monoclonal antibody 776.1 (antibody, V domains shown)
VH: EVQLQQSGPELVKPGASVKISCKASGYTFTDYNIHWVKQSHGKILEWIGYIYPYNGVSDYNQNFKSKATLIVDNSSNTAYMELRSLTSEDSAVYYCARWDFGSGYYFDYWGQGTTLTVSS
VL: QIVLSQSPAILFASPGETVTMTCRASSSVIYMCWNQQKPGSSPKPWIYGTSTLASGVPTRFSGSGSGTSYSLTISRVEAEDAATYYCQQWSSNPFTFGSGTKLEI
B2: O772P 3-repeat recombinant protein (other)
chain: AAQPARRARRTKLFTHRSSVSTTSTPGTPTVYLGASKTPASIFGPSAASHLLILFTLNFTITNLRYEENMWPGSRKFNTTERVLQGLLRPLFKNTSVGPLYSGCRLTLLRPEKDGEATGVDAICTHRPDPTGPGLDREQLYLELSQLTHSITELGPYTLDRDSLYVNGFTHRSSVPTTSTGVVSEEPFTLNFTINNLRYMADMGQPGSLKFNITDNVMKHLLSPLFQRSSLGARYTGCRVIALRSVKNGAETRVDLLCTYLQPLSGPGLPIKQVFHELSQQTHGITRLGPYSLDKDSLYLNGYNEPGPDEPPTTPKPATTFLPPLSEATTAMGYHLKTLTLNFTISNLQYSPDMGKGSATFNSTEGVLQHLLRPLFQKSSMGPFYLGCQLISLRPEKDGAATGVDTTCTYHPDPVGPGLDIQQLYWELSQLTHGVTQLGFYVLDRDSLFINGYAPQNLSIRGEYQINFHIVNWNLSNPDPTSSEYITLLRDIQDKVTTLYKGSQLHDTFRFCLVTNLTMDSVLVTVKALFSSNLDPSLVEQVFLDKTLNASFHWLGSTYQLVDIHVTEMESSVYQPTSSSSTQHFYLNFTITNLPYSQDKAQPGTTNYQRNKRNIEDALNQLFRNSSIKSYFSDCQVSTFRSVPNRHHTGVDSLCNFSPLARRVDRVAIYEEFLRMTRNGTQLQNFTLDRSSVLVDGYSPNRNEPLTGNSADIQHSGGRSSLEGPRFEQKLISEEDLNMHTGHHHHHH
notes: Repeats are residues 14-452 of the entry
B3: OC125 (antibody)
chain 1: QVQLQESGPELVKPGASVKISCKASGYTFTDYNMHWVKQSHGKSLEWIGYIYPYNGDTGYNQKFRNKASLTVDTSSSTAYMELRSLTSEDSAVYYWARSGGFWYFDVWGQGGTTVTVSS
chain 2: DIQMTQSPAILSASPGEKVTMTCRATPSVSYMHWYQQKPGSSPKPLIYTTSNLASGVPARFSGGGSGTSYSLTVSRVEVEDAATYYCQQWSRSPPTFGAGTKLEIK
B4: monoclonal antibody 16H9 (antibody, V domains shown)
VH: EVQLQQSGAELVKPGASVKLSCTASGFNIKDTYMHWVKQRPEQGLEWIGRIDPANGNTKYDPKFQGKATITADTSSNTAYVQLSSLTSEDTAVYYCASSDIYYGNPGGFAYWGQGTLVTVSA
VL: QIVLTQSPAIMSASLGERVTMTCTASSSVSSSYLHWYQQKPGSSPKLWIYSTSNLASGVPARFSGSGSGTSYSLTISSMEAEDAATYYCHQYHRSPFTFGSGTKLEI
notes: Murine hybridoma antibody; also called hybridoma 16H9 (ATCC PTA-5108)
B5: monoclonal antibody 725.1 (antibody, V domains shown)
VH: QIQLVQSGPELKKPGETVKISCKASGYSFTNYGMNWVKQAPGKGLKWMGWINAYIGEPTYADDFKGRFAFSLEASTHTAYLQINSLKSEDTATYFCASGGNSLDFWGQGTTLTVSS
VL: QIILSQSPAILSASPGEKVTMTCRASSSVSSIHWYQQKPESSPKPWIYATSNLASGVPVRFSGSGSGTSYTLTISRMEAADAATYYCQQWSIDPATFGGGTKLEI
notes: Murine hybridoma antibody; also called hybridoma 725.1 (ATCC PTA-5124)

Tests used:
[1] = target: B2; test: ELISA competition, plate-bound O772P 3-repeat; no competitor
Method: (§1) On the next day, the plates were washed with 200 μl 1×PBST (1× phosphate-buffered saline (PBS), 0.05% Tween 20) three times and blocked with 100 μl of 1×PBST containing 1% bovine serum albumin (BSA) for 2 hours at 37° C. […] After 1 hour incubation at 37° C., the plates were then washed with 1×PBST three times. For signal detection, 100 μl of HRP-conjugated sheep anti-mouse IgG (1:2000 dilution into 1×PBST+1% BSA, Amersham Biosciences) was added to each well and incubated for 1 hour at 37° C. The plates were washed again with 1×PBST three times. Finally, 100 μl¹ of a mixture of TMB substrate and H₂O₂ (1:1 ratio, KPL) was added into each well and the absorbance was measured at 405 nm with a plate reader (Molecular Devices Corp., Sunnyvale, Calif.). The assay was done in triplicate for each selected antibody and average values were calculated and presented. The percent inhibition compared to no competition was calculated for individual antibodies based on average values. Controls for blank and individual reagents were also included in each experiment.

[2] = target: B2; test: ELISA, plate-bound O772P 3-repeat
Method: On the next day, the plates were washed with 200 μl 1×PBST (1× phosphate-buffered saline (PBS), 0.05% Tween 20) three times and blocked with 100 μl of 1×PBST containing 1% bovine serum albumin (BSA) for 2 hours at 37° C. […] After 1 hour incubation at 37° C., the plates were then washed with 1×PBST three times. For signal detection, 100 μl of HRP (horseradish peroxidase)-conjugated sheep anti-mouse IgG (1:2000 dilution into 1×PBST+1% BSA; Amersham Biosciences) was added to each well and incubated for 1 hour at 37° C. The plates were again washed three times with 1×PBST. Finally, 100 μl¹ of a mixture of TMB (3,3′, 5,5′-tetramethylbenzidine) substrate and H₂O₂ (1:1 ratio, KPL Kirkguard Perry Laboratories) was added into each well and after a 5 minute incubation, the absorbance was measured at 405 nm with a plate reader (Molecular Devices Corp., Sunnyvale, Calif.). The assay was done in triplicate for each selected O772P hybridoma-produced antibody and data was collected and analyzed as a kinetic assay, measured over a 5 minute time period. Average values were calculated and presented. Controls for blank and individual reagents were also included in each experiment.

[3] = target: B2; test: BIAcore SPR, O772P 3-repeat immobilized, mAb injected
Method: A […] BIAcore biosensor chip was docked into the BIAcore X instrument and activated with 55 μl of 1:1 NHS/EDC at room temperature. O772P 3-repeat region protein and BSA at 10 μg/ml in 0.05 M acetate buffer, pH 4.5, were immobilized onto the flow cell (FC) 1 and FC2 of the activated chip, respectively, at a flow rate of 5 μl/min to achieve a resonance response of 1000-2000 RU. The chip was then blocked by injection of 55 μl of ethanolamine-HCl, pH 8.5, and followed with washing 5 times with 50 mM NaOH-1 M NaCl. To measure the binding of anti-0722P mAbs to the O772P 3-repeat region immobilized to the chip, 30 μl of anti-0722P mAbs at varying concentrations in BIAcore running buffer (HBS-EP, Cat. #1001-080, BIAcore, Piscataway, N.J.) were injected over the sensor surface at a flow rate of 5 μl/min. Following completion of the injection phase, dissociation was monitored in BIAcore running buffer at the same flow rate for 360 seconds. The surface was regenerated between injections using 30 μl of 50 mM NaOH-1 M NaCl. Individual sensorgrams were analyzed using BIAevaluation.

[4] = target: B2; test: ELISA competition, plate-bound O772P 3-repeat; competitor soluble O772P 3-repeat
Method: as §1

[5] = target: T2, CA 125/O772P on OVCAR-3 cells (human, UniProt Q8WXI7 1-14507); test: flow cytometry, OVCAR-3 cells; Ab 2 µg/ml
T2 construct: whole, on cells

[6] = target: B2; test: ELISA competition, plate-bound O772P 3-repeat; competitor shed CA 125/O772P
Method: as §1

[7] = target: T1, O772P 3-repeat TM on transfected …; test: flow cytometry, NIH/3T3 cells expressing O772P 3-repeat TM; Ab 2 µg/ml
OC125 = target: B3; test: ELISA competition: soluble O772P 3-repeat at 10x w/w excess against antibody binding to plate-bound O772P 3-repeat
Method: as §1

[8] = target: T3, monoclonal antibody 368.1; test: as above
T3 construct: Murine hybridoma antibody
T3 sequence (VH, as listed by the source, chain 1 of 2): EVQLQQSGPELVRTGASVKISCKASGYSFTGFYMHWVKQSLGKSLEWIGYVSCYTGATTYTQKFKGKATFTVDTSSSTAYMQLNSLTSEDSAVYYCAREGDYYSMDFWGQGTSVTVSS
T3 sequence (VL, as listed by the source, chain 2 of 2): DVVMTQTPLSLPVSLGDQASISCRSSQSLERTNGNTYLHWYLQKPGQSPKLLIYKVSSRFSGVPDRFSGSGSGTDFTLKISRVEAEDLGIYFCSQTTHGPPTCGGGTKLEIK
Method: as §1

[9] = target: B1; test: as above
Method: as §1

[10] = target: T4, monoclonal antibody 117.1; test: as above
T4 construct: Murine hybridoma antibody
T4 sequence (VH, as listed by the source, chain 1 of 2): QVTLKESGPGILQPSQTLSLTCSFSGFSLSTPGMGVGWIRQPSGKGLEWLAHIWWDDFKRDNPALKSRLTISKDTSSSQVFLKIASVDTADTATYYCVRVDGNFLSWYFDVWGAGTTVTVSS
T4 sequence (VL, as listed by the source, chain 2 of 2): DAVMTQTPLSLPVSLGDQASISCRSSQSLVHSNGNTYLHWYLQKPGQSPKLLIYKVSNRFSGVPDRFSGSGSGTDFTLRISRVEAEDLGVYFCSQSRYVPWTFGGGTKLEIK
Method: as §1

[11] = target: T5, monoclonal antibody 501.1; test: as above
T5 construct: Murine hybridoma antibody
T5 sequence (VH, as listed by the source, chain 1 of 2): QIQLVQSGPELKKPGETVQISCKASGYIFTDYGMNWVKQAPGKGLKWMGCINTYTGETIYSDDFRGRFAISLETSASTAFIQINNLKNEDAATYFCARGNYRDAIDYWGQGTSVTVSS
T5 sequence (VL, as listed by the source, chain 2 of 2): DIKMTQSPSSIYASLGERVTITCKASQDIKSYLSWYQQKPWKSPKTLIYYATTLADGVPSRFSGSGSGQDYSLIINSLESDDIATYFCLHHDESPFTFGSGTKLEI
Method: as §1

| Binder | absorbance [1] [OD] | absorbance (OD) [2] [OD] | absorbance (OD)/µg Ab [2] [OD/µg Ab] | Kd [3] [nM] | absorbance w/O772P 3-repeat competitor (10 x w/w excess) [4] [OD] | absorbance w/shed CA 125/O772P competitor (25-fold w/w excess) [6] [OD] | further results |
| --- | --- | --- | --- | --- | --- | --- | --- |
| B1 | 1.18 | 1.18 | 29 | 0.4 | 0.077 | 0.977 | % positive cells [5]: 94%; % positive cells [7]: 86% |
| B2 |  |  |  |  |  |  | percent inhibition of binding (OC125): 99%; percent inhibition of binding [8]: 30%; percent inhibition of binding [9]: 96%; percent inhibition of binding [10]: 94%; percent inhibition of binding [11]: 96% |
| B3 | 0.73 | 0.73 | 18 | 4 | 0.047 | 0.074 |  |
| B4 |  |  |  | 3.9 |  |  |  |
| B5 |  |  |  | 2.6 |  |  |  |
